Measurements: US20220267441A1 (VOR BIOPHARMA, published 2022)
Where two headings read alike, the source gives them in different places.

Columns and labels:
[1] = molecular target: T1, cynomolgus CD45 on live cells (primary cynomolgus PBMCs) (cynomolgus monkey); assay: flow cytometry on PBMCs; cyno EC50 against human EC50
T1 construct: Endogenous CD45 on PBMCs; also called cyno CD45; Cyno PBMC
T1 chain: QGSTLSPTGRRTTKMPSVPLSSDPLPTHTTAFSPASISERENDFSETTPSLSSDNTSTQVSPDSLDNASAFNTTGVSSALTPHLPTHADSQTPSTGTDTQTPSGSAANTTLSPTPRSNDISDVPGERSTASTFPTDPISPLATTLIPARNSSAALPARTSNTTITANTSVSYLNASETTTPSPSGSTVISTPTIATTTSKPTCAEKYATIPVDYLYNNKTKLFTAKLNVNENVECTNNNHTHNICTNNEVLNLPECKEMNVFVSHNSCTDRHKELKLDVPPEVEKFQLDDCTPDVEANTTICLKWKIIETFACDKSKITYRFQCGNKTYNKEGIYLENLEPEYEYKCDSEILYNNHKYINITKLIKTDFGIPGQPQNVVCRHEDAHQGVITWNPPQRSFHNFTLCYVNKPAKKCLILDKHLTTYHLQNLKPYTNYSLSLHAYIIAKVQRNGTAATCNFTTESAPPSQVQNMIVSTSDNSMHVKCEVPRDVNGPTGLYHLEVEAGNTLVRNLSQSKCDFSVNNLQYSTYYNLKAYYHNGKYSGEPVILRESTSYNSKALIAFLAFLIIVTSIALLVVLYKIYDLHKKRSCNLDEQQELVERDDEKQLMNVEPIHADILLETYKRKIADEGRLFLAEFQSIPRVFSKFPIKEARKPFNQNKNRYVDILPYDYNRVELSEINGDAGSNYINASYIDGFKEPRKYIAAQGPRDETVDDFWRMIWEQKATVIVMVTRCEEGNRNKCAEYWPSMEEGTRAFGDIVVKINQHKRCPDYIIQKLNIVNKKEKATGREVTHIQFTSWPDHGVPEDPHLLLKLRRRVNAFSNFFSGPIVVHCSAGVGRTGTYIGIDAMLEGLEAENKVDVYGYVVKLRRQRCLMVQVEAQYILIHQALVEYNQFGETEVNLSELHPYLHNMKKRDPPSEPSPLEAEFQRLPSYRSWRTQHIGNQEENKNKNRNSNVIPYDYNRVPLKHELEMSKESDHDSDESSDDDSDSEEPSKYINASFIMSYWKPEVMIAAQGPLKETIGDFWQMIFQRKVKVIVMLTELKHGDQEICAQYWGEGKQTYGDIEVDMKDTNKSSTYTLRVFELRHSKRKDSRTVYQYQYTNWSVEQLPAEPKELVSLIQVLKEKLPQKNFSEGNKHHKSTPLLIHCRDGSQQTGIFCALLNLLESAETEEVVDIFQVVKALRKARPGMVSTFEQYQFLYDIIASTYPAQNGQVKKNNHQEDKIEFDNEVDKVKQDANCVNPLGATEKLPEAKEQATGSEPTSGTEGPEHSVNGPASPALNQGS

[2] = molecular target: T2, human CD45 on live cells (REH-1 cells, primary human PBMCs) (human, UniProt P08575 26-1306); assay: flow cytometry on human PBMCs, overnight 37 C, AF488 anti-human IgG
T2 construct: Endogenous CD45
T2 sequence: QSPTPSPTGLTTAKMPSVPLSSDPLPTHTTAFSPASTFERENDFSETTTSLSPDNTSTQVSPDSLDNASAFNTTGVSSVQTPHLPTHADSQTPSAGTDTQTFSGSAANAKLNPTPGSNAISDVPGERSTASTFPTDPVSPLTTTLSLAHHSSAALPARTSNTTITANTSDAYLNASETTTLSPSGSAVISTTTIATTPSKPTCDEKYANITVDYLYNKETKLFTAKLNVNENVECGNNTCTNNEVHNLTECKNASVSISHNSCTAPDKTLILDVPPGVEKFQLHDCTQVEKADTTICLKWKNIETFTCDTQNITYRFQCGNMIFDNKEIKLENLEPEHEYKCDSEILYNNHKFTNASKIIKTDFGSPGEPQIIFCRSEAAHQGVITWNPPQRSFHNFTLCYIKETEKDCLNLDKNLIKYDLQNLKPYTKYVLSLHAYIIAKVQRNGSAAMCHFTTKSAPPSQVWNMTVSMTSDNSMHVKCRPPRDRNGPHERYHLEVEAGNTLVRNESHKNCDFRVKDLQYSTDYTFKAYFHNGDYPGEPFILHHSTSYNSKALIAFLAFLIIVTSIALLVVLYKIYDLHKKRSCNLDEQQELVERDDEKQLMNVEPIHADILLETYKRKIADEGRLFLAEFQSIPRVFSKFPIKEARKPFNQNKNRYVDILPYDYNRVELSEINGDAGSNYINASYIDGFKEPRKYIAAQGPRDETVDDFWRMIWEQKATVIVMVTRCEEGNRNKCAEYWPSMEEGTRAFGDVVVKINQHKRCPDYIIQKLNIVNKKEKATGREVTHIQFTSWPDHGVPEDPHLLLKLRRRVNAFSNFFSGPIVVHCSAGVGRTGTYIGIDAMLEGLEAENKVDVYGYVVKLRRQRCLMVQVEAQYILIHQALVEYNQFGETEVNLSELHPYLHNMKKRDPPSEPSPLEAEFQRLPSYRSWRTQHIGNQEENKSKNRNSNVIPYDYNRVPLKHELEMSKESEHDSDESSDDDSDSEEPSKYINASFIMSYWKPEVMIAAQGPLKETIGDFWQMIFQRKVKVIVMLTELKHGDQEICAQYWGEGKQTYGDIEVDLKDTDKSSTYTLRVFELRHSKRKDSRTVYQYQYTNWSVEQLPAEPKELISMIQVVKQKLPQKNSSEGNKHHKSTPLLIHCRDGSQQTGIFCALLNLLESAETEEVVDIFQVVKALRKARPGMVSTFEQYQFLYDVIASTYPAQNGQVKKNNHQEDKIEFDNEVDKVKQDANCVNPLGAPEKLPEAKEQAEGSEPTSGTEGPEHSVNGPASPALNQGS

[3] = molecular target: T1, cynomolgus CD45 on live cells (primary …); assay: flow cytometry on cynomolgus PBMCs, overnight 37 C, AF488 anti-human IgG
[4] = molecular target: T1, cynomolgus CD45 on live cells (primary …); assay: flow cytometry on PBMCs; cyno EC50 against human EC50
[5] = molecular target: T1, cynomolgus CD45 on live cells (primary …); assay: as above
[6] = molecular target: T2, human CD45 on live cells (REH-1 cells, …); assay: flow cytometry on human PBMCs, overnight 37 C, AF488 anti-human IgG; remark: listed apart in the source
[7] = molecular target: T2, human CD45 on live cells (REH-1 cells, …); assay: as above; remark: listed apart in the source
[8] = molecular target: T1, cynomolgus CD45 on live cells (primary …); assay: flow cytometry on cynomolgus PBMCs, overnight 37 C, AF488 anti-human IgG
[9] = molecular target: T1, cynomolgus CD45 on live cells (primary …); assay: as above
[10] = molecular target: T3, purified human CD45 ectodomain (human CD45RABC antigen) (human, UniProt P08575 26-577); assay: BLI (Octet Red96), antibody on anti-human Fc sensor, 100 nM human CD45 ectodomain, 1:1 fit
T3 construct: also called hCD45
T3 sequence: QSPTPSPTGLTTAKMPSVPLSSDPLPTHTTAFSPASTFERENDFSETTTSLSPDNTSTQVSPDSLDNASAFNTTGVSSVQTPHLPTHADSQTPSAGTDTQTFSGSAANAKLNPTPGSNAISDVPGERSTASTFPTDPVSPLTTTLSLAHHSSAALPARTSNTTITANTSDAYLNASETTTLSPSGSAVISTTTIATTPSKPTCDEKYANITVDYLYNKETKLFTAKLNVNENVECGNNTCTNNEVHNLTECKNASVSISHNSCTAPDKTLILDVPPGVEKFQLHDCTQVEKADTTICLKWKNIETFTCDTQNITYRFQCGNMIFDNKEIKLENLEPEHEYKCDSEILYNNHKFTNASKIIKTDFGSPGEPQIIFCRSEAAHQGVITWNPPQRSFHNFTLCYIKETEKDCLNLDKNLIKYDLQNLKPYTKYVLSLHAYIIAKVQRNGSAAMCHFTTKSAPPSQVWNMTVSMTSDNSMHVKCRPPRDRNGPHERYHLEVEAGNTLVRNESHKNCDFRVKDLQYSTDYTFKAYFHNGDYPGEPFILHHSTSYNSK

[11] = molecular target: T3, purified human CD45 ectodomain (human …); assay: BLI (Octet Red96), IgG on anti-human Fc sensor, 100 nM CD45 ectodomain, 1:1 fit
[12] = molecular target: T2, human CD45 on live cells (REH-1 cells, …); assay: flow cytometry on REH-1 cells, overnight 37 C, AF488 anti-human IgG
[13] = molecular target: T2, human CD45 on live cells (REH-1 cells, …); assay: flow cytometry on human PBMCs, overnight 37 C, AF488 anti-human IgG; remark: listed apart in the source
[14] = molecular target: T1, cynomolgus CD45 on live cells (primary …); assay: flow cytometry on cynomolgus PBMCs, overnight 37 C, AF488 anti-human IgG

B1: AbC_D265C_LALA_H435A (antibody, human IgG1, kappa, L234A L235A, V domains shown)
VH: EVQLVESGGGLVQPGGSLRLSCAASGFTFNNYWMTWVRQAPGKGLEWVSSISSSGGSIYYPDSVKDRFTISRDNAKNSLYLQMNSLRAEDMAVYYCARLYYYDGGGDAWGQGTLVTVSS
VL: GIQMTQSPSSLSASVGDRVTITCKASQDINKYLDWYQQKPGKAPKLLIYNTNNLHTGIPSRFSGSGSGTDYTLTISSLQPEDFATYYCLQHISRWTFGGGTKVEIKR
notes: also called Fc variant of AbC
Question: How did the “Cyno/Human Ratio (EC50)” value [1] turn out when B1 was run?
Answer: Its value is 1.49 ratio.

Question: What about the EC50 [2] of the same binder?
Answer: Its EC50 is 2.2 nM.

Question: What about the EC50 [3] of the same binder?
Answer: Its EC50 is 3.3 nM.

B2: AbA_D265C_LALA_H435A (antibody, human IgG1, kappa, L234A L235A, V domains shown)
VH: EVQLLESGGGLVQPGGSLRLSCAASGFTFNNYWMTWVRQAPGKGLEWVSSISSSGGSIYYPDRVKGRFTISRDNSKNTLYLQMNSLRAEDTAVYYCARDERWAGAMDAWGQGTTVTVSS
VL: DIQMTQSPSSLSASVGDRVTITCKASQNINKNLDWYQQKPGKAPKLLIYETNNLQTGVPSRFSGSGSGTDFTLTISSLQPEDFATYYCYQHNSRFTFGQGTKLEIKR
notes: also called Fc variant of AbA
Question: B2 was tested. Which “Cyno/Human Ratio (EC50)” value [1] did it give?
Answer: The value was 1.49 ratio.

Question: What about the EC50 [2] of the same binder?
Answer: Its EC50 is 2.3 nM.

Question: And the EC50 [3]?
Answer: The EC50 was 3.4 nM.

B3: Antibody B (AbB) (antibody, IgG1, V domains shown)
VH: EVQLVESGGGLVQPGGSLRLSCAASGFTFTNFWMAWIRQAPGKGLEWVASISSSGGSIYYPDSVKDRFTISRDNSKNTLYLQMNSLRAEDTAVYYCVKFHHYSGGGDAWGQGTLVTVSS
VL: DIQMTQSPSSLSASVGDRVTITCKASQNINKYLDWYQQKPGKAPKLLIHYTNNLHTGIPSRFSGSGSGTDYTLTISSLQPEDFATYYCLQHSSRWTFGGGTKVEIK
notes: also called humanized clone AbB
Question: What does the source list for B3?
Answer: Fold Cyno vs Human (EC50) [4]: 1.7 fold; Fold Cyno v/s Human (EC50) [5]: 1.9 fold; EC50 [6]: 0.67 nM; EC50 [7]: 0.76 nM; EC50 [8]: 1.12 nM; EC50 [9]: 1.42 nM; Kd [10]: 5.46 nM; koff [10]: 0.000239 s⁻¹; kon [10]: 43800 M⁻¹ s⁻¹

B4: AbB_D265C_LALA_H435A (antibody, human IgG1, kappa, L234A L235A, V domains shown)
VH: EVQLVESGGGLVQPGGSLRLSCAASGFTFTNFWMAWIRQAPGKGLEWVASISSSGGSIYYPDSVKDRFTISRDNSKNTLYLQMNSLRAEDTAVYYCVKFHHYSGGGDAWGQGTLVTVSS
VL: DIQMTQSPSSLSASVGDRVTITCKASQNINKYLDWYQQKPGKAPKLLIHYTNNLHTGIPSRFSGSGSGTDYTLTISSLQPEDFATYYCLQHSSRWTFGGGTKVEIKR
notes: also called Fc variant of AbB
Question: B4 was tested. Which “Cyno/Human Ratio (EC50)” value [1] did it give?
Answer: The value was 1.36 ratio.

Question: And the EC50 [2]?
Answer: Its EC50 is 2.2 nM.

Question: And the EC50 [3]?
Answer: The EC50 was 2.9 nM.

B5: Antibody 1 (Ab1) (antibody, V domains shown)
VH: QVQLVESGGGLVKPGGSLRLSCAASGFTFSSYSMNWVRQAPGKGLEWVSYISSSSSTIYYADSVKGRFTISRDNAKNSLYLQMNSLRAEDTAVYYCARGGQYYYDSSRYGEVAFDIWGQGTMVTVSS
VL: not shown
notes: Fully human IgG from yeast display; also called Parent 1; parent clone Ab1
Question: How did the koff [11] turn out when B5 was run?
Answer: The koff was 0.0499 s⁻¹.

Question: What about the kon [11] of the same binder?
Answer: The kon was 458000 M⁻¹ s⁻¹.

B6: Ab5 (D265C LALA H435A) (antibody, human IgG1, kappa, L234A L235A, V domains shown)
VH: EVQLVESGGGLVQPGGSLRLSCAASGFTFEAYSMNWVRQAPGKGLEWVSYISLSGATIHYADSVKGRFTISRDNAKNSLYLQMNSLRAEDTAVYYCARGGQYYYTSSDYGEVAFDIWGQGTMVTVSS
VL: DIVMTQSPLSLPVTPGEPASISCRSSQSLVSSGYNYLDWYLQKPGQSPQLLIYFGSSRASGVPDRFSGSGSGTDFTLKISRVEAEDVGVYYCMQRRRTPWSFGGGTKVEIKR
Question: With B6 as the binder, how does the EC50 [12] read?
Answer: Its EC50 is 0.3 nM.

Question: And the EC50 [13]?
Answer: Its EC50 is 1.4 nM.

Question: What about the EC50 [14] of the same binder?
Answer: Its EC50 is 1.3 nM.
